Here are results for eight molecules from paper PMC6422423, “Constitutively active BRS3 is a genuinely orphan GPCR in placental mammals” (PLoS Biology, 2019).

The assay concerns mouse BRS3 (mBRS3). Description: Luciferase reporter, constitutive activity (WT, mutants, truncated; with/without inhibitor). Set-up: key to constitutive luciferase activity: fold over pcDNA-transfected blank control (blank = 1). It counts as cell-based. The note with it: for luciferase, CRE / luciferase, NFAT / luciferase, SRE / luciferase, SRF: Blank = 1; for constitutive luciferase activity: no ligand; for CRE luciferase reporter activity relative to Blank (Blank = 1) / NFAT luciferase reporter activity relative to Blank (Blank = 1) / SRF luciferase reporter activity relative to Blank (Blank = 1): constitutive, full-length mBRS3 and truncated N-mBRS3. The protocol: To detect constitutive activity of BRS3, HEK293 cells were seeded in 24-well plates and cotransfected with the CRE/NFAT-RE/SRF-RE/SRE luciferase reporter plasmids (50 ng), the BRS3 from different species, or BRS3 mutants with different doses (10 ng/50 ng/150 ng); after 24 h, cells were further incubated in serum-free media for another 12 h before luciferase assay. As for peptide supplementation treatment, HEK293 cells were cotransfected with the CRE/NFAT-RE/SRF-RE/SRE luciferase reporter plasmids (50 ng) and various genes (300 ng) of the bombesin receptor family. […] Luciferase activities were determined using luciferase assay kits (Beyotime, Shanghai, China) and normalized to β-galactosidase activity. All experiments were performed at least three times in triplicates. HEK293 cells transfected with pcDNA were used as a blank control in all luciferase experiments, and the fold was calculated compared to blank control.
For orientation: A reporter such as luciferase makes a cellular process visible.

B1: mouse (protein, UniProt O54798 1-399, looked up)
Bombesin receptor subtype-3: MSQRQSQSPNQTLISITNDTETSSSVVSNDTTHKGWTGDNSPGIEALCAIYITYAGIISVGILGNAILIKVFFKTKSMQTVPNIFITSLAFGDLLLLLTCVPVDATHYLAEGWLFGKVGCKVLSFIRLTSVGVSVFTLTILSADRYKAVVKPLERQPPNAILKTCAKAGGIWIVSMIFALPEAIFSNVYTFQDPNRNVTFESCNSYPISERLLQEIHSLLCFLVFYIIPLSIISVYYSLIARTLYKSTLNIPTEEQSHARKQIESRKRIAKTVLVLVALFALCWLPNHLLYLYHSFTYESYANHSDVPFVIIIFSRVLAFSNSCVNPFALYWLSKTFQQHFKAQLCCLKAEQPEPPLGDIPLNNLTVMGRVPATGSAHVSEISVTLFSGSSAKKGEDKV
For the molecule B1, where the note is “value 1 of 3”, the “luciferase, CRE” value is listed as 19.4537; the “luciferase, NFAT” value worked out at 19.0254; the “luciferase, SRE” value is reported as 1.5624; the “luciferase, SRF” value turned out to be 20.3125. In addition, for the setting “value 2 of 3”, the “luciferase, CRE” value came to 18.5759; the “luciferase, NFAT” value worked out at 18.2536; the “luciferase, SRE” value stood at 1.4021; the “luciferase, SRF” value came out at 21.0453. Besides, for the setting “value 3 of 3”, the “luciferase, NFAT” value is recorded as 18.6395; the “luciferase, SRE” value came to 1.4823; the “luciferase, SRF” value was 20.6789.

B2: mBRS3-A270I (protein, UniProt O54798 1-399, looked up, variant A270I)
Bombesin receptor subtype-3: MSQRQSQSPNQTLISITNDTETSSSVVSNDTTHKGWTGDNSPGIEALCAIYITYAGIISVGILGNAILIKVFFKTKSMQTVPNIFITSLAFGDLLLLLTCVPVDATHYLAEGWLFGKVGCKVLSFIRLTSVGVSVFTLTILSADRYKAVVKPLERQPPNAILKTCAKAGGIWIVSMIFALPEAIFSNVYTFQDPNRNVTFESCNSYPISERLLQEIHSLLCFLVFYIIPLSIISVYYSLIARTLYKSTLNIPTEEQSHARKQIESRKRIIKTVLVLVALFALCWLPNHLLYLYHSFTYESYANHSDVPFVIIIFSRVLAFSNSCVNPFALYWLSKTFQQHFKAQLCCLKAEQPEPPLGDIPLNNLTVMGRVPATGSAHVSEISVTLFSGSSAKKGEDKV
B2: the constitutive luciferase activity is, setting by setting: (SRF, mean) 14.9649; (SRF, replicate 1) 15.7177; (SRF, replicate 2) 14.2121.

B3: mBRS3-R268A (protein, UniProt O54798 1-399, looked up, variant R268A)
Bombesin receptor subtype-3: MSQRQSQSPNQTLISITNDTETSSSVVSNDTTHKGWTGDNSPGIEALCAIYITYAGIISVGILGNAILIKVFFKTKSMQTVPNIFITSLAFGDLLLLLTCVPVDATHYLAEGWLFGKVGCKVLSFIRLTSVGVSVFTLTILSADRYKAVVKPLERQPPNAILKTCAKAGGIWIVSMIFALPEAIFSNVYTFQDPNRNVTFESCNSYPISERLLQEIHSLLCFLVFYIIPLSIISVYYSLIARTLYKSTLNIPTEEQSHARKQIESRKAIAKTVLVLVALFALCWLPNHLLYLYHSFTYESYANHSDVPFVIIIFSRVLAFSNSCVNPFALYWLSKTFQQHFKAQLCCLKAEQPEPPLGDIPLNNLTVMGRVPATGSAHVSEISVTLFSGSSAKKGEDKV
Molecule B3 displayed a constitutive luciferase activity (SRF, mean) of 19.8563; a constitutive luciferase activity (SRF, replicate 1) of 19.1647; a constitutive luciferase activity (SRF, replicate 2) of 20.5479.

B4: mBRS3 (protein)
chain: MSQRQSQSPNQTLISITNDTETSSSVVSNDTTHKGWTGDNSPGIEALCAIYITYAGIISVGILGNAILIKVFFKTKSMQTVPNIFITSLAFGDLLLLLTCVPVDATHYLAEGWLFGKVGCKVLSFIRLTSVGVSVFTLTILSADRYKAVVKPLERQPPNAILKTCAKAGGIWIVSMIFALPEAIFSNVYTFQDPNRNVTFESCNSYPISERLLQEIHSLLCFLVFYIIPLSIISVYYSLIARTLYKSTLNIPTEEQSHARKQIESRKRIAKTVLVLVALFALCWLPNHLLYLYHSFTYESYANHSDVPFVIIIFSRVLAFSNSCVNPFALYWLSKTFQQHFKAQLCCLKAEQPEPPLGDIPLNNLTVMGRVPATGSAHVSEISVTLFSGSSAKKGEDKV
modifications: left off: V5 (from the vector pcDNA3.1-V5-His), end not stated, state not stated | His tag (from the vector pcDNA3.1-V5-His), end not stated, state not stated
In the case of B4, the “CRE luciferase reporter activity relative to Blank (Blank = 1)” value is, setting by setting: (CRE, replicate 1) 16.331; (CRE, replicate 2) 17.4509; (CRE, third line, unlabelled, equals mean of the two replicates) 16.8909. In addition, the constitutive luciferase activity is, setting by setting: (CRE, mean) 17.9436; (CRE, replicate 1) 17.8927; (CRE, replicate 2) 17.9945; (SRF, mean) 20.9426; (SRF, replicate 1) 19.9659; (SRF, replicate 2) 21.9194. Also, the “NFAT luciferase reporter activity relative to Blank (Blank = 1)” value is 16.9181 (replicate 1); 16.5656 (replicate 2); 16.7418 (third line, unlabelled, equals mean of the two replicates). Moreover, the “SRF luciferase reporter activity relative to Blank (Blank = 1)” value turned out to be 18.8375 (SRF, replicate 1); 17.9845 (SRF, replicate 2); 18.411 (SRF, third line, unlabelled, equals mean of the two replicates).

B5: mBRS3-P158A (protein, UniProt O54798 1-399, looked up, variant P158A)
Bombesin receptor subtype-3: MSQRQSQSPNQTLISITNDTETSSSVVSNDTTHKGWTGDNSPGIEALCAIYITYAGIISVGILGNAILIKVFFKTKSMQTVPNIFITSLAFGDLLLLLTCVPVDATHYLAEGWLFGKVGCKVLSFIRLTSVGVSVFTLTILSADRYKAVVKPLERQPANAILKTCAKAGGIWIVSMIFALPEAIFSNVYTFQDPNRNVTFESCNSYPISERLLQEIHSLLCFLVFYIIPLSIISVYYSLIARTLYKSTLNIPTEEQSHARKQIESRKRIAKTVLVLVALFALCWLPNHLLYLYHSFTYESYANHSDVPFVIIIFSRVLAFSNSCVNPFALYWLSKTFQQHFKAQLCCLKAEQPEPPLGDIPLNNLTVMGRVPATGSAHVSEISVTLFSGSSAKKGEDKV
In turn, B5 displayed a constitutive luciferase activity (CRE, mean) of 15.9368; a constitutive luciferase activity (CRE, replicate 1) of 15.6335; a constitutive luciferase activity (CRE, replicate 2) of 16.2401.

B6: mBRS3-Q156A (protein, UniProt O54798 1-399, looked up, variant Q156A)
Bombesin receptor subtype-3: MSQRQSQSPNQTLISITNDTETSSSVVSNDTTHKGWTGDNSPGIEALCAIYITYAGIISVGILGNAILIKVFFKTKSMQTVPNIFITSLAFGDLLLLLTCVPVDATHYLAEGWLFGKVGCKVLSFIRLTSVGVSVFTLTILSADRYKAVVKPLERAPPNAILKTCAKAGGIWIVSMIFALPEAIFSNVYTFQDPNRNVTFESCNSYPISERLLQEIHSLLCFLVFYIIPLSIISVYYSLIARTLYKSTLNIPTEEQSHARKQIESRKRIAKTVLVLVALFALCWLPNHLLYLYHSFTYESYANHSDVPFVIIIFSRVLAFSNSCVNPFALYWLSKTFQQHFKAQLCCLKAEQPEPPLGDIPLNNLTVMGRVPATGSAHVSEISVTLFSGSSAKKGEDKV
Turning to B6, the constitutive luciferase activity runs as follows: (CRE, mean) 16.9342; (CRE, replicate 1) 16.8106; (CRE, replicate 2) 17.0578.

B7: mBRS3-F337A (protein, UniProt O54798 1-399, looked up, variant F337A)
Bombesin receptor subtype-3: MSQRQSQSPNQTLISITNDTETSSSVVSNDTTHKGWTGDNSPGIEALCAIYITYAGIISVGILGNAILIKVFFKTKSMQTVPNIFITSLAFGDLLLLLTCVPVDATHYLAEGWLFGKVGCKVLSFIRLTSVGVSVFTLTILSADRYKAVVKPLERQPPNAILKTCAKAGGIWIVSMIFALPEAIFSNVYTFQDPNRNVTFESCNSYPISERLLQEIHSLLCFLVFYIIPLSIISVYYSLIARTLYKSTLNIPTEEQSHARKQIESRKRIAKTVLVLVALFALCWLPNHLLYLYHSFTYESYANHSDVPFVIIIFSRVLAFSNSCVNPFALYWLSKTAQQHFKAQLCCLKAEQPEPPLGDIPLNNLTVMGRVPATGSAHVSEISVTLFSGSSAKKGEDKV
Take B7: the constitutive luciferase activity was 15.0321 (SRF, mean); 15.1183 (SRF, replicate 1); 14.946 (SRF, replicate 2).

B8: mBRS3-Q339A (protein, UniProt O54798 1-399, looked up, variant Q339A)
Bombesin receptor subtype-3: MSQRQSQSPNQTLISITNDTETSSSVVSNDTTHKGWTGDNSPGIEALCAIYITYAGIISVGILGNAILIKVFFKTKSMQTVPNIFITSLAFGDLLLLLTCVPVDATHYLAEGWLFGKVGCKVLSFIRLTSVGVSVFTLTILSADRYKAVVKPLERQPPNAILKTCAKAGGIWIVSMIFALPEAIFSNVYTFQDPNRNVTFESCNSYPISERLLQEIHSLLCFLVFYIIPLSIISVYYSLIARTLYKSTLNIPTEEQSHARKQIESRKRIAKTVLVLVALFALCWLPNHLLYLYHSFTYESYANHSDVPFVIIIFSRVLAFSNSCVNPFALYWLSKTFQAHFKAQLCCLKAEQPEPPLGDIPLNNLTVMGRVPATGSAHVSEISVTLFSGSSAKKGEDKV
On to B8, for which the constitutive luciferase activity (SRF, mean) was 15.5479; the constitutive luciferase activity (SRF, replicate 1) was determined as 16.2185; the constitutive luciferase activity (SRF, replicate 2) is recorded as 14.8773.
